Results taken from patent US20130022605A1.

Target: mouse TNFR1 on L929 cells (mouse) (UniProt P25118)
Assay: cell-based or functional assay

mouse TNFR1 on L929 cells (mouse), sequence (P25118 30-454): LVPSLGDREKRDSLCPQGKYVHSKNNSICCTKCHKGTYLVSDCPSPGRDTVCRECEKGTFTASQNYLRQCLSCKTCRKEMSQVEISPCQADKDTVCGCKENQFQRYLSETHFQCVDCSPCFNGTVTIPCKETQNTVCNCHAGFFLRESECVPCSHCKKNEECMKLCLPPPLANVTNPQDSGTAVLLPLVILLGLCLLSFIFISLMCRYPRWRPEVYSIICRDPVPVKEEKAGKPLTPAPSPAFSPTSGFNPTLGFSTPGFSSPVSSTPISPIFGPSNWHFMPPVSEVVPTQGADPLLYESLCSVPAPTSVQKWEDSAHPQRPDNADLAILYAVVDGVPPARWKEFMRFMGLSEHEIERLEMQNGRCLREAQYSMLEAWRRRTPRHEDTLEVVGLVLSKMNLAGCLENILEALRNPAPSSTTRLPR

Row | Substance | ND50, L929 cytotoxicity without TNF-α (agonism) [nM]
1 | anti-TNFR1 antibody MAB430 (R&D Systems) | 10
2 | anti-TNFR1 antibody AF-425-PB (R&D Systems) | 0.1
